Patent US20100260668A1 (published 2010)

B1: DVD495 (bispecific antibody, human IgG1, kappa)
heavy: not shown
light: DIQMTQSSSYLSVSLGGRVTITCKASDHINNWLAWYQQKPGNAPRLLISGATSLETGVPSRFSGSGSGKDYTLSITSLQTEDVATYYCQQYWSIPLTFGAGTKLELKRTVAAPSVFIFPPDIQMTQSPSSLSASVGDRVTITCRASQDVSTAVAWYQQKPGKAPKLLIYSASFLYSGVPSRFSGSGSGTDFTLTISSLQPEDFATYYCQQSYTTPPTFGQGTKVEIKRTVAAPSVFIFPPSDEQLKSGTASVVCLLNNFYPREAKVQWKVDNALQSGNSQESVTEQDSKDSTYSLSSTLTLSKADYEKHKVYACEVTHQGLSSPVTKSFNRGEC
notes: DVD-Ig; N-term; VD AB072 (DLL4), C-term; VD AB070 (VEGF); HC linker long, LC linker long; also called DVD495H; DVD495L
B2: DVD507 (bispecific antibody, human IgG1, kappa, L234A L235A)
heavy: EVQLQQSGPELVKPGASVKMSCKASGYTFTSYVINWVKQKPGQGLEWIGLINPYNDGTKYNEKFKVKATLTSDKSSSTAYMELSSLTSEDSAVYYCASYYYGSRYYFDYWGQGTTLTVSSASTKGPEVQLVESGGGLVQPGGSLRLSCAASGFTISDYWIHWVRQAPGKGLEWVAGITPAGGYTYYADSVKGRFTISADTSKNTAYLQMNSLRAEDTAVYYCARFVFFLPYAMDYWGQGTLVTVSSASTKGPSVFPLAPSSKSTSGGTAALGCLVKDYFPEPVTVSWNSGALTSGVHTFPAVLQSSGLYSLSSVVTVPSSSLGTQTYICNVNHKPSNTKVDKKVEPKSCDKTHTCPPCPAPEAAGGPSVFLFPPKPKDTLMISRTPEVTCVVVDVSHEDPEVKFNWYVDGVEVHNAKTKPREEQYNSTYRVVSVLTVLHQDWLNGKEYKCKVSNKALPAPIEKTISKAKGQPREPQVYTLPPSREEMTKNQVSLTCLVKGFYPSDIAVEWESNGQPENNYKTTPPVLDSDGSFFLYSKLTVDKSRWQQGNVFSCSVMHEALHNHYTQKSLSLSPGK
light: B1 light
notes: DVD-Ig; N-term; VD AB072 (DLL4), C-term; VD AB070 (VEGF); HC linker short, LC linker long; also called DVD507H; DVD507L
B3: DVD450 (bispecific antibody, human IgG1, kappa)
heavy: not shown
light: DIQMTQSPSSLSASVGDRVTITCRASQDVSTAVAWYQQKPGKAPKLLIYSASFLYSGVPSRFSGSGSGTDFTLTISSLQPEDFATYYCQQSYTTPPTFGQGTKVEIKRTVAAPSVFIFPPDIVMTQSPDSLAVSLGERATISCRASESVDNYGISFMKWFQQKPGQPPKLLIYAASNQGSGVPDRFSGSGSGTDFTLTISSLQAEDVAVYYCQQSKEVPWTFGGGTKVEIKRTVAAPSVFIFPPSDEQLKSGTASVVCLLNNFYPREAKVQWKVDNALQSGNSQESVTEQDSKDSTYSLSSTLTLSKADYEKHKVYACEVTHQGLSSPVTKSFNRGEC
notes: DVD-Ig; N-term; VD AB070 (VEGF), C-term; VD AB069 (DLL4); HC linker long, LC linker long; also called DVD450H; DVD450L
B4: DVD462 (bispecific antibody, human IgG1, kappa)
heavy: not shown
light: B3 light
notes: DVD-Ig; N-term; VD AB070 (VEGF), C-term; VD AB069 (DLL4); HC linker short, LC linker long; also called DVD462H; DVD462L
B5: DVD444 (bispecific antibody, human IgG1, kappa)
heavy: not shown
light: DIQMTQSPSSLSASVGDRVTITCRASQDVSTAVAWYQQKPGKAPKLLIYSASFLYSGVPSRFSGSGSGTDFTLTISSLQPEDFATYYCQQSYTTPPTFGQGTKVEIKRTVAAPDIVMTQSPDSLAVSLGERATISCRASESVDNYGISFMKWFQQKPGQPPKLLIYAASNQGSGVPDRFSGSGSGTDFTLTISSLQAEDVAVYYCQQSKEVPWTFGGGTKVEIKRTVAAPSVFIFPPSDEQLKSGTASVVCLLNNFYPREAKVQWKVDNALQSGNSQESVTEQDSKDSTYSLSSTLTLSKADYEKHKVYACEVTHQGLSSPVTKSFNRGEC
notes: DVD-Ig; N-term; VD AB070 (VEGF), C-term; VD AB069 (DLL4); HC linker short, LC linker short; also called DVD444H; DVD444L
B6: DVD456 (bispecific antibody, human IgG1, kappa)
heavy: not shown
light: B5 light
notes: DVD-Ig; N-term; VD AB070 (VEGF), C-term; VD AB069 (DLL4); HC linker long, LC linker short; also called DVD456H; DVD456L
B7: DVD472 (bispecific antibody, human IgG1, kappa)
heavy: not shown
light: DIQMTQSPSSLSASVGDRVTITCRASQDVSTAVAWYQQKPGKAPKLLIYSASFLYSGVPSRFSGSGSGTDFTLTISSLQPEDFATYYCQQSYTTPPTFGQGTKVEIKRTVAAPSVFIFPPDIQMTQSPSSLSASVGDRVTITCRASQDVSTAVAWYQQKPGKAPKLLIYSASFLYSGVPSRFSGSGSGTDFTLTISSLQPEDFATTYYCQQSYTGTVTFGQGTKVEIKRTVAAPSVFIFPPSDEQLKSGTASVVCLLNNFYPREAKVQWKVDNALQSGNSQESVTEQDSKDSTYSLSSTLTLSKADYEKHKVYACEVTHQGLSSPVTKSFNRGEC
notes: DVD-Ig; N-term; VD AB070 (VEGF), C-term; VD AB015 (DLL4); HC linker long, LC linker long; also called DVD472H; DVD472L
B8: DVD484 (bispecific antibody, human IgG1, kappa)
heavy: not shown
light: B7 light
notes: DVD-Ig; N-term; VD AB070 (VEGF), C-term; VD AB015 (DLL4); HC linker short, LC linker long; also called DVD484H; DVD484L
B9: DVD514 (bispecific antibody, human IgG1, lambda)
heavy: not shown
light: DIQMTQSPSSLSASVGDRVTITCRASQDVSTAVAWYQQKPGKAPKLLIYSASFLYSGVPSRFSGSGSGTDFTLTISSLQPEDFATYYCQQSYTTPPTFGQGTKVEIKRTVAAPQAVVTQESALTTSPGETVTLTCRSSTGAVTTSNYANWVQEKPDHLFTGLIGGTNNRAPGVPARFSGSLIGDKAALTITGAQTEDEAIYFCALWYSNHWVFGGGTKLTVLGQPKAAPSVTLFPPSSEELQANKATLVCLISDFYPGAVTVAWKADSSPVKAGVETTTPSKQSNNKYAASSYLSLTPEQWKSHRSYSCQVTHEGSTVEKTVAPTECS
notes: DVD-Ig; N-term; VD AB070 (VEGF), C-term; VD AB073 (DLL4); HC linker short, LC linker short; also called DVD514H; DVD514L
B10: DVD466 (bispecific antibody, human IgG1, kappa)
heavy: not shown
light: DIQMTQSPSSLSASVGDRVTITCRASQDVSTAVAWYQQKPGKAPKLLIYSASFLYSGVPSRFSGSGSGTDFTLTISSLQPEDFATYYCQQSYTTPPTFGQGTKVEIKRTVAAPDIQMTQSPSSLSASVGDRVTITCRASQDVSTAVAWYQQKPGKAPKLLIYSASFLYSGVPSRFSGSGSGTDFTLTISSLQPEDFATTYYCQQSYTGTVTFGQGTKVEIKRTVAAPSVFIFPPSDEQLKSGTASVVCLLNNFYPREAKVQWKVDNALQSGNSQESVTEQDSKDSTYSLSSTLTLSKADYEKHKVYACEVTHQGLSSPVTKSFNRGEC
notes: DVD-Ig; N-term; VD AB070 (VEGF), C-term; VD AB015 (DLL4); HC linker short, LC linker short; also called DVD466H; DVD466L
B11: DVD478 (bispecific antibody, human IgG1, kappa)
heavy: not shown
light: B10 light
notes: DVD-Ig; N-term; VD AB070 (VEGF), C-term; VD AB015 (DLL4); HC linker long, LC linker short; also called DVD478H; DVD478L
B12: DVD531 (bispecific antibody, human IgG1, kappa, lambda)
heavy: not shown
light: QAVVTQESALTTSPGETVTLTCRSSTGAVTTSNYANWVQEKPDHLFTGLIGGTNNRAPGVPARFSGSLIGDKAALTITGAQTEDEAIYFCALWYSNHWVFGGGTKLTVLGQPKAAPSVTLFPPDIQMTQSPSSLSASVGDRVTITCRASQDVSTAVAWYQQKPGKAPKLLIYSASFLYSGVPSRFSGSGSGTDFTLTISSLQPEDFATYYCQQSYTTPPTFGQGTKVEIKRTVAAPSVFIFPPSDEQLKSGTASVVCLLNNFYPREAKVQWKVDNALQSGNSQESVTEQDSKDSTYSLSSTLTLSKADYEKHKVYACEVTHQGLSSPVTKSFNRGEC
notes: DVD-Ig; N-term; VD AB073 (DLL4), C-term; VD AB070 (VEGF); HC linker short, LC linker long; also called DVD531H; DVD531L
B13: DVD520 (bispecific antibody, human IgG1, kappa, lambda)
heavy: not shown
light: DIQMTQSPSSLSASVGDRVTITCRASQDVSTAVAWYQQKPGKAPKLLIYSASFLYSGVPSRFSGSGSGTDFTLTISSLQPEDFATYYCQQSYTTPPTFGQGTKVEIKRTVAAPSVFIFPPQAVVTQESALTTSPGETVTLTCRSSTGAVTTSNYANWVQEKPDHLFTGLIGGTNNRAPGVPARFSGSLIGDKAALTITGAQTEDEAIYFCALWYSNHWVFGGGTKLTVLGQPKAAPSVTLFPPSSEELQANKATLVCLISDFYPGAVTVAWKADSSPVKAGVETTTPSKQSNNKYAASSYLSLTPEQWKSHRSYSCQVTHEGSTVEKTVAPTECS
notes: DVD-Ig; N-term; VD AB070 (VEGF), C-term; VD AB073 (DLL4); HC linker long, LC linker long; also called DVD520H; DVD520L
B14: DVD489 (bispecific antibody, human IgG1, kappa, L234A L235A)
heavy: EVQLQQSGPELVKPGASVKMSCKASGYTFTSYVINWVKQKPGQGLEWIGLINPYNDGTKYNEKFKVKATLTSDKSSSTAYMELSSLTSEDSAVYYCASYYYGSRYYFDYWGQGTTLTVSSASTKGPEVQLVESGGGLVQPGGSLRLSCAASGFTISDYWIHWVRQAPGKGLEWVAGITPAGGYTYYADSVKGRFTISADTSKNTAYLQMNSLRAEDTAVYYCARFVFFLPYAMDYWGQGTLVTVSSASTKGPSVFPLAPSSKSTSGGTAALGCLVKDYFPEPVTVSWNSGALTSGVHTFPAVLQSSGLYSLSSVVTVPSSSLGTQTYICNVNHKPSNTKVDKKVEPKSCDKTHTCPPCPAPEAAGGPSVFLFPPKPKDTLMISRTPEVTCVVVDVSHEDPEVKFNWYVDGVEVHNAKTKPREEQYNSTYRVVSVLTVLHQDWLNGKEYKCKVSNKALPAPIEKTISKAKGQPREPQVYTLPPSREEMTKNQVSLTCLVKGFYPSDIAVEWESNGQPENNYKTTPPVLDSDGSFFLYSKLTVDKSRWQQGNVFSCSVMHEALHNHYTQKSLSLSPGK
light: DIQMTQSSSYLSVSLGGRVTITCKASDHINNWLAWYQQKPGNAPRLLISGATSLETGVPSRFSGSGSGKDYTLSITSLQTEDVATYYCQQYWSIPLTFGAGTKLELKRTVAAPDIQMTQSPSSLSASVGDRVTITCRASQDVSTAVAWYQQKPGKAPKLLIYSASFLYSGVPSRFSGSGSGTDFTLTISSLQPEDFATYYCQQSYTTPPTFGQGTKVEIKRTVAAPSVFIFPPSDEQLKSGTASVVCLLNNFYPREAKVQWKVDNALQSGNSQESVTEQDSKDSTYSLSSTLTLSKADYEKHKVYACEVTHQGLSSPVTKSFNRGEC
notes: DVD-Ig; N-term; VD AB072 (DLL4), C-term; VD AB070 (VEGF); HC linker short, LC linker short; also called DVD489H; DVD489L
B15: DVD501 (bispecific antibody, human IgG1, kappa)
heavy: not shown
light: B14 light
notes: DVD-Ig; N-term; VD AB072 (DLL4), C-term; VD AB070 (VEGF); HC linker long, LC linker short; also called DVD501H; DVD501L

Target: T1, VEGF (UniProt P15692-4 27-191)
T1 construct: Bought reagent; also called vascular endothelial growth factor
T1 sequence (P15692 other isoform, or with tags, fused parts or gaps limits assumed): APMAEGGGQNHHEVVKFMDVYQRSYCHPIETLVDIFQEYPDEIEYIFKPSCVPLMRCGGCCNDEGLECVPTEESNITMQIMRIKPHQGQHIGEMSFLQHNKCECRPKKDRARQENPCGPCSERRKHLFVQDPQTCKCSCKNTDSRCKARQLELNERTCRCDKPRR
Assay: SPR (Biacore), DVD-Ig captured, VEGF in solution

Kd | koff | kon | Binder
645 pM | 0.000204 s⁻¹ | 316000 M⁻¹ s⁻¹ | B1
847 pM | 0.000201 s⁻¹ | 238000 M⁻¹ s⁻¹ | B2
255 pM | 0.00431 s⁻¹ | 1.69e+07 M⁻¹ s⁻¹ | B3
864 pM | 0.000858 s⁻¹ | 993000 M⁻¹ s⁻¹ | B4
162 pM | 0.0038 s⁻¹ | 2.35e+07 M⁻¹ s⁻¹ | B5
281 pM | 0.00448 s⁻¹ | 1.6e+07 M⁻¹ s⁻¹ | B6
201 pM | 0.00024 s⁻¹ | 1.2e+06 M⁻¹ s⁻¹ | B7
255 pM | 0.0041 s⁻¹ | 1.61e+07 M⁻¹ s⁻¹ | B8
1010 pM | 0.000549 s⁻¹ | 541000 M⁻¹ s⁻¹ | B9
710 pM | 0.000393 s⁻¹ | 553000 M⁻¹ s⁻¹ | B10
354 pM | 0.000195 s⁻¹ | 552000 M⁻¹ s⁻¹ | B11
584 pM | 0.000442 s⁻¹ | 756000 M⁻¹ s⁻¹ | B12
817 pM | 0.000961 s⁻¹ | 1.18e+06 M⁻¹ s⁻¹ | B13
1760 pM | 0.000365 s⁻¹ | 207000 M⁻¹ s⁻¹ | B14
821 pM | 0.000175 s⁻¹ | 213000 M⁻¹ s⁻¹ | B15
